In the supplement of paper PMC10567573:

B1: FCHO1 (parent)
chain: DKLALCHLELTRKLQDLIKDVLRY
B2: PLAGL1 (parent)
chain: CKDFLCQFCAQRFGRKDHLTRHTK

Variants of: B1
Experiment: protein stability index of a GFP-peptide fusion (GPS, HEK-293T) (PSI 1-6); higher = more stable
Conditions: c terminus: a fixed tail appended
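Note: lentivirally expressed fusions sorted by FACS into six bins by GFP to DsRed ratio, PSI derived from sequencing read proportions per bin multiplied by bin number.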

Protein stability index: each site, then its substitutions
V21: G 2.84 | H 3.97 | I 2.97 | N 2.02 | P 2.13 | R 2 | S 1.83 | T 2.53 | Y 2.3
L22: A 2.73 | D 2.32 | E 2.67 | G 1.68 | K 1.65 | M 2.35 | N 1.47 | P 3.16 | Q 2.92 | S 2.44 | T 1.05
R23: A 3.49 | C 3.57 | D 2.08 | I 1.47 | L 2.59 | P 1.2 | Q 3.15
Y24: C 2.92 | E 3.6 | G 2.98 | K 2.3 | N 2.43 | P 1.99 | S 1.04 | T 2.26

Variants of: B2
Experiment: as above
Conditions: c terminus: a fixed tail appended

Protein stability index, by site and new letter:
C1: A 3.04 | D 2.31 | F 1.64 | G 1.93 | H 2.02 | I 2.46 | K 2.11 | L 2.25 | M 1.53 | N 1.72 | P 2.2 | Q 2.11 | R 2.04 | S 2.7 | T 1.76 | V 1.67 | W 1.84 | Y 2.44
K2: A 1.7 | C 2.44 | D 2.02 | E 2.13 | F 2.35 | G 2.43 | H 2.46 | I 1.78 | L 1.85 | M 1.46 | N 2.02 | P 2.52 | Q 2.08 | R 2.74 | S 1.74 | T 2.09 | V 1.53 | W 1.7 | Y 2.05
D3: A 1.57 | C 1.31 | E 1.78 | F 3.19 | G 2.38 | H 2.07 | I 2.01 | K 1.48 | L 1.86 | M 1.38 | N 1.56 | P 1.73 | Q 2.76 | R 1.81 | S 1.51 | T 1.77 | V 2.38 | W 1.73 | Y 2.11
F4: A 2.05 | C 1.97 | D 1.76 | E 2.56 | G 2.02 | H 1.58 | I 1.54 | K 2.41 | L 1.41 | M 2.21 | N 2.64 | P 2.37 | Q 2.34 | R 2.4 | S 2.23 | T 2.35 | V 1.27 | Y 1.36
L5: A 2.02 | C 1.41 | D 2.18 | E 2.07 | F 2.56 | G 2.23 | H 1.89 | I 1.69 | K 2.08 | M 1.9 | N 2.23 | P 2.87 | Q 2.01 | R 1.43 | S 2.41 | T 1.81 | V 1.36 | W 1.93 | Y 1.82
C6: A 2.18 | D 2.17 | E 2.63 | F 1.78 | G 1.84 | H 2.25 | I 1.62 | K 1.4 | L 1.99 | M 1.48 | N 1.76 | P 2.38 | Q 2.34 | R 1.41 | S 1.58 | T 2.04 | V 1.89 | W 1.78 | Y 2.1
Q7: A 2.38 | C 1.52 | D 2.2 | E 2.25 | F 1.74 | G 2.09 | H 1.96 | K 2.21 | L 1.29 | M 2.29 | N 1.74 | P 2.23 | R 2.08 | S 1.76 | T 2.35 | V 2.02 | W 2.57 | Y 2.06
F8: A 2.94 | C 3.64
